Three substances from US20090081197A1, “Methods for Selection of Melanocortin Receptor-Specific Agents for Treatment of Obesity” (Palatin Technologies, Inc., priority 2007, published 2009) can be followed below.

Experiment [1] concerns the target human melanocortin 4 receptor (human) (UniProt P32245). Nature of the experiment: cell-based or functional assay.
For experiment [2] the target is unchanged. Nature of the experiment: radioligand competition, [I125]-NDP-α-MSH, hMC4-R membranes. For orientation: Loss of bound radioactivity is the signal in a displacement assay; it reports binding, not function.
The target of experiment [3] is human melanocortin 5 receptor (human) (UniProt P33032). Nature of the experiment: radioligand competition, [I125]-NDP-α-MSH, hMC5-R membranes.
Sequence of human melanocortin 5 receptor (human) (P33032 whole entry): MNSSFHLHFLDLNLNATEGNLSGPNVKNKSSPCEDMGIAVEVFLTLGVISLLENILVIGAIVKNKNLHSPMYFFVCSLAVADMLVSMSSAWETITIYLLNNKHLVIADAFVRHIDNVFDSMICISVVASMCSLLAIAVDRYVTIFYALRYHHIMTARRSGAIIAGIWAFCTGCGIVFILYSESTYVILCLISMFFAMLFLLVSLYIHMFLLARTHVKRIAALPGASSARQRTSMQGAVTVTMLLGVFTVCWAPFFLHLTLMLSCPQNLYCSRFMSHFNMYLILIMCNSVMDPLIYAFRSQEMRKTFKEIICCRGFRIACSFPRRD
For experiment [4] the target is unchanged. Nature of the experiment: radioligand competition, [I125]-NDP-α-MSH, hMC5-R membranes, 1 µM compound.
For experiment [5], the target named is human melanocortin 3 receptor (human) (UniProt P41968). Briefly: radioligand competition, [I125]-NDP-α-MSH, hMC3-R membranes, 1 µM compound.
Sequence of human melanocortin 3 receptor (human) (P41968 whole entry): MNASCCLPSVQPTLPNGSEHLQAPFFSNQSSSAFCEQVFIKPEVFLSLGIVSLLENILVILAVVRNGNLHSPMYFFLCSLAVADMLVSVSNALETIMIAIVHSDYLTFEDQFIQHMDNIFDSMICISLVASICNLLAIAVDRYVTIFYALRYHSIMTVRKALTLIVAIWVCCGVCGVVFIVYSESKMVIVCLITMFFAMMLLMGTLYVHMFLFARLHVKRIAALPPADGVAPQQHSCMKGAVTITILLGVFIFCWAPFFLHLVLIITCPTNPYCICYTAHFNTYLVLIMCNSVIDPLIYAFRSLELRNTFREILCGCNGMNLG
The target is the same in experiment [6]. Nature of the experiment: radioligand competition, [I125]-NDP-α-MSH, hMC3-R membranes.
Experiment [7] addresses MC1-R of B-16 mouse melanoma cells (mouse) (UniProt Q01727). Nature of the experiment: radioligand competition, [I125]-NDP-α-MSH, B-16 membranes, 1 µM compound.
Experiment [8] has the same target. Briefly: radioligand competition, [I125]-NDP-α-MSH, B-16 membranes.
In experiment [9] the target is human melanocortin 4 receptor (human) (UniProt P32245). Briefly: radioligand competition, [I125]-NDP-α-MSH, hMC4-R membranes, 1 µM compound.
Sequence of human melanocortin 4 receptor (human) (P32245 whole entry): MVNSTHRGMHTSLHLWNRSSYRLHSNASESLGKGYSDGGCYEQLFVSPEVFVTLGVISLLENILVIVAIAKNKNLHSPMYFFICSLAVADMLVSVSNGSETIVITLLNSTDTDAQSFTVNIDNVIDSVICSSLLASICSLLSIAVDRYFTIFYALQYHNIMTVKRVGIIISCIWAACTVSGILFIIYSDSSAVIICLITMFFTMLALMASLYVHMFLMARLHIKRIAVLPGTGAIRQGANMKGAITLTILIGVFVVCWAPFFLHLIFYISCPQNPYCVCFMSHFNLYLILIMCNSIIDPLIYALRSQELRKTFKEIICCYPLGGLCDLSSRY

Sequence of MC1-R of B-16 mouse melanoma cells (mouse) (Q01727 whole entry): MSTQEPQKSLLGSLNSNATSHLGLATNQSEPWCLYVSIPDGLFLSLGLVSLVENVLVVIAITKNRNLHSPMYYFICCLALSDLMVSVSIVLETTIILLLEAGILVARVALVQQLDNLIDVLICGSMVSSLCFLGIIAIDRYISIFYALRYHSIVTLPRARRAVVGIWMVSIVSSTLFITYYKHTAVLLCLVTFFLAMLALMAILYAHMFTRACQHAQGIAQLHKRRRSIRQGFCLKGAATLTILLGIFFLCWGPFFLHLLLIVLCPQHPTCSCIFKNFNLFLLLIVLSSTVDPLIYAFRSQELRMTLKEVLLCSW

As for PT-141 (peptide), in experiment [1], the EC50 (nM) (cAMP), 0.1 ng/mL Doxycycline turned out to be 3 nM; the EC50 (nM) (cAMP), 10 ng/mL Doxycycline stood at 0.9 nM; the Efficacy/Intrinsic Activity (cAMP), 0.1 ng/mL Doxycycline was found to be 0.9; the Efficacy/Intrinsic Activity (cAMP), 10 ng/mL Doxycycline worked out at 1.
Broadly, the Ki is a dissociation constant, usually derived from enzyme kinetics or from competition with a known ligand. For orientation: Inhibition means the drop in the measured response relative to a control, in per cent. A lower Inhibition goes with a weak effect. For “7'-amino-heptanoyl-Ser(Bzl)-D-Phe(4-Cl)-Arg-S-(-)-1-(1-naphthyl)ethylamide (peptide)”, the inhibitory constant (Ki) in experiment [2] worked out at 7 nM; in [3], 313 nM; in [6], 125 nM; in [8], 338 nM. Besides, the Inhibition at 1 µM (NDP-α-MSH) was 64% in experiment [4], 85% in experiment [5], 46% in [7] and 98% in [9]. Moreover, the EC50 (nM) (cAMP), High Receptor Density System in experiment [1] came out at 180 nM. The substance further had an EC50 (nM), normal system (cAMP) in experiment [1] of 17 nM. The substance also had an Efficacy/Intrinsic Activity (cAMP), High Receptor Density System in experiment [1] of 0.63. The intrinsic activity, normal system (cAMP) in experiment [1] stood at 0.3.
Consider “2-naphthylacetyl-1-amino-1-cyclohexane-carbonyl-D-Phe(4-Cl)-Arg-Trp-NH2 (peptide)”, for which the inhibition constant (Ki) in experiment [2] amounted to 40 nM; in [3], 300 nM; in experiment [6], 453 nM; in experiment [8] it was 897 nM. Also, the Inhibition at 1 µM (NDP-α-MSH) in experiment [4] came out at 63%; in [5] it was 35%; in experiment [7] it was 25%; in experiment [9] it was 92%. The substance further registered an EC50 (nM), normal system (cAMP) in [1] above 1000 nM. In addition, the intrinsic activity, normal system (cAMP) in experiment [1] turned out to be 0.2.
